Test results reported in patent US8409836B2, “Treatment of cellulosic material and enzymes useful therein” (Roal Oy, priority 2005, dated 2013).
Values joined by “and” are separate entries in the source; they are usually repeats but may differ in a detail not shown here. Equal entries are not always repeated.

B1: Ta βG_81: beta-glucosidase of Thermoascus aurantiacus ALKO4242, gene Ta cel3A, amino acid SEQ ID NO: 22 (protein)
chain: MRLGWLELAVAAAATVASAKDDLAYSPPFYPSPWMNGNGEWAEAYRRAVDFVSQLTLAEKVNLTTGVGWMQEKCVGETGSIPRLGFRGLCLQDSPLGVRFADYVSAFPAGVNVAATWDKNLAYLRGKAMGEEHRGKGVDVQLGPVAGPLGRHPDGGRNWEGFSPDPVLTGVLMAETIKGIQDAGVIACAKHFIGNEMEHFRQAGEAVGYGFDITESVSSNIDDKTLHELYLWPFADAVRAGVGSFMCSYNQVNNSYSCSNSYLLNKLLKSELDFQGFVMSDWGAHHSGVGAALAGLDMSMPGDTAFGTGKSFWGTNLTIAVLNGTVPEWRVDDMAVRIMAAFYKVGRDRYQVPVNFDSWTKDEYGYEHALVGQNYVKVNDKVDVRADHADIIRQIGSASVVLLKNDGGLPLTGYEKFTGVFGEDAGSNRWGADGCSDRGCDNGTLAMGWGSGTADFPYLVTPEQAIQNEILSKGKGLDSVSIVFVNADSGEGYINVDGNEGDRKNLTLWKGGEEVIKTVAANCNNTIVVMHTVGPVLIDEWYDNPNVTAIVWAGLPGQESGNSLVDVLYGRVSPGGKTPFTWGKTRESYGAPLLTKPNNGKGAPQDDFTEGVFIDYRRFDKYNETPIYEFGFGLSYTTFEYSNIYVQPLNARPYTPASGSTKAAPTFGNISTDYADYLYPEDIHKVPLYIYPWLNTTDPEEVLRRSRLTEMKAEDYIPSGATDGSPQPILPAGGAPGGNPGLYDEMYRVSAIITNTGNVVGDEVPQLYVSLGGPDDPKVVLRNFDRITLHPGQQTMWTTTLTRRDISNWDPASQNWVVTKYPKTVYIGSSSRKLHLQAPLPPY

Assays:
[1] = Xylanase activity on birch xylan; type: biochemical
In short: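 Xylanase activity measured on birch glucuronoxylan by the IUPAC 1987 standard procedure, using enzyme purified from Acremonium thermophilum ALKO4245 or Thermoascus aurantiacus ALKO4242 culture supernatant. Protein determined by dye-binding assay against a bovine serum albumin standard.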

[2] = Isoelectric focusing (PhastSystem), pI of purified protein; type: physicochemical; conditions: IEF gel
Protocol: The sample was dissolved in water and applied to a Superdex 75 HR 10/30 gel filtration column equilibrated with 20 mM sodium phosphate pH 6.0, containing 0.15 M NaCl. Fractions were collected and those containing endoglucanase activity were combined. The protein eluate was judged to be pure by SDS-polyacrylamide gel electrophoresis and the molecular mass was evaluated on the basis of molecular mass standards (prestained SDS-PAGE standards, Broad Range, Bio-Rad) to be 54 kDa. The pI of the purified protein, designated as Ct EG—54 was determined with PhastSystem (Pharmacia) to be ca 5.5.
The sample was applied to a Sephacryl S-100 HR 26/60 gel filtration column equilibrated with 50 mM sodium acetate buffer pH 5.0, containing 0.05 M NaCl. The protein fraction containing endoglucanase activity was eluted from the column with a retention volume corresponding to a molecular weight of 16 kDa. Collected fractions were combined, concentrated and gel filtration was repeated. The protein eluate was judged to be pure by SDS-polyacryl amide gel electrophoresis and the molecular weight was evaluated to be 28 kDa. The pI of the purified protein, designated as Ta EG—28, was determined in an IEF gel (PhastSystem, Pharmacia) to be about 3.5. The specific activity of Ta EG—28 at 50° C. was determined to be 4290 nkat/mg (procedure of IUPAC 1987, using CMC as substrate).
The active material from the anion exchange chromatography was applied to a Sephacryl S-300 HR 26/60 column equilibrated with 20 mM sodium phosphate pH 6.5, containing 0.15 M NaCl. The protein with β-glucosidase activity was eluted with a retention volume corresponding to a molecular weight of 243 kDa. The protein was judged to be pure by SDS-polyacrylamide gel electrophoresis and the molecular weight was evaluated to be 101 kDa. The pI of the purified protein, designated as At βG—101, was determined in an IEF gel (PhastSystem, Pharmacia) to be in the area of 5.6-4.9. The specific activity of At βG—101 at 50° C. was determined to be 1100 nkat/mg (using 4-nitrophenyl-β-D-glucopyranoside as substrate, Bailey and Linko, 1990).
The active material from the cation exchange chromatography was applied to a Sephacryl S-300 HR 26/60 column equilibrated with 20 mM sodium phosphate pH 7.0, containing 0.15 M NaCl. The protein with β-glucosidase activity was eluted with a retention volume corresponding to a molecular weight of 294 kDa. […] The protein was judged to be pure by SDS-polyacrylamide gel electrophoresis and the molecular weight was evaluated to be 81 kDa, representing most likely the monomeric form of the protein. […] The specific activity of the purified protein, designated as Ta βG—81, at 50° C. was determined to be 600 nkat/mg using 4-nitrophenyl-β-D-glucopyranoside as substrate (Bailey and Linko, 1990). […]

[3] = pH optimum of heterologously produced xylanase; type: biochemical; conditions: McIlvaine's buffer, pH range 3.0-8.0, birch xylan
Protocol: (§1) Thermoascus XYN—30/Xyn10A was produced in T. reesei and the pH optimum of the heterologously produced protein was determined in the universal McIlvaine's buffer within a pH range of 3.0-8.0 using birch xylan as substrate (FIG. 8A). The optimal pH was determined to be 4.5. The temperature optimum for the enzymatic activity of XYN—30 was determined to be 75° C. (FIG. 8B).

[4] = Temperature optimum of heterologously produced xylanase; type: biochemical; conditions: pH 5.3, 60 min reaction
Protocol: as §1

[5] = β-glucosidase activity on 4-nitrophenyl-β-D-glucopyranoside; type: biochemical
Protocol: (§2) Acremonium Thermophilum ALKO4245 was grown as described in Example 1. The pure β-glucosidase was obtained by sequential purification with hydrophobic interaction and anion exchange chromatography followed by gel filtration. The β-glucosidase activity of the fractions collected during purification was determined using 4-nitrophenyl-β-D-glucopyranoside as substrate (Bailey and Linko, 1990). Protein content was measured by BioRad Assay Kit (Bio-Rad Laboratories) using bovine serum albumine as standard.
as §2, with “Thermoascus aurantiacus ALKO4242” for “Acremonium Thermophilum ALKO4245”, “interaction, anion” for “interaction”, “cation” for “anion”

[6] = Thermal stability of purified β-glucosidase; type: biochemical; conditions: 0.1 mg/ml BSA, pH 5.0, 60 min, 4-nitrophenyl-β-D-glucopyranoside
Protocol: (§3) Thermal stability of the purified β-glucosidase was determined at different temperatures. The reaction was performed in the presence of 0.1 mg/ml BSA at pH 5.0 for 60 min using 4-nitrophenyl-β-D-glucopyranoside as substrate. A. thermophilum βG—101 was stable up to 70° C. The Aspergillus reference enzyme (Novozym 188) retained 100% of activity up to 60°.
as §3, with “T. aurantiacus βG—81” for “A. thermophilum βG—101”, “75°” for “70°”, “60° C.” for “60°.”

[7] = pH optimum of heterologously produced β-glucosidases; type: biochemical; conditions: McIlvaine's buffer, pH range 3.0-8.0, 4-nitrophenyl-β-D-glucopyranoside
Protocol: (§4) The pH optimum of the heterologously produced β-glucosidases was determined in the universal McIlvaine's buffer within a pH range of 3.0-8.0 using 4-nitrophenyl-β-D-glucopyranoside as substrate. The pH optima for the Acremonium βG—101, Chaetomium βG—76, and Thermoascus βG—81 are pH 4.5, 5.5, and 4.5, respectively (FIG. 7 A). The optimal temperature for enzymatic activity of these β-glucosidases was determined at the temperature range of 50-85° C. as described above. The highest activity of the enzymes was determined to be at 70° C., 65° C., and 75° C. for the Acremonium βG—101/Cel3A, Chaetomium βG—76/Cel3A, and Thermoascus βG—81/Cel3A, respectively (FIG. 7 B).

[8] = Temperature optimum of heterologously produced β-glucosidases; type: biochemical; conditions: temperature range 50-85° C., 60 min
Protocol: as §4

[9] = system: Trichoderma-strains (A47 and Rut-C30); assay: Cellulase induction on βG_81 pretreated Nutriose in shake flask cultivation; type: cell-based; conditions: 7 days shake flask cultivation
Protocol: A high concentration starch hydrolysate mixture (Nutriose 74/968, Roquette) was treated with Thermoascus aurantiacus βG—81/Cel3A enriched enzyme preparation produced as described in Example 21 to produce a sugar mixture containing appreciable amounts of cellulase inducer (sophorose) to overcome the glucose repression.
The Ta βG—81/Cel3A enriched enzyme preparation was added to a 70% (w/w) Nutriose solution to a final concentration of 1 g total protein/liter. The container of the mixture was incubated in a water bath at 65° C. for 3 days with constant stirring and used as a carbon source in a shake flask medium for two different Trichoderma-strains (A47 and Rut-C30). The effect of the enzyme treatment was measured as an endoglucanase activity formed during a 7 days shake flask cultivation. As a reference cultivations were performed under the same conditions with untreated Nutriose as a carbon source.

Molecule	Xylanase activity of the preparation ([1]; assayed according to Bailey et al., 1992)	Specific activity on birch xylan ([1]; purified xylanase, 50° C., procedure of IUPAC 1987)	pI of the purified protein [2]	pH optimum [3]	Temperature optimum [4]	β-glucosidase activity of the preparation ([5]; according to Bailey and Linko, 1990, listed as Ta βG—81/Cel3A)	Specific activity on 4-nitrophenyl-β-D-glucopyranoside ([5]; purified β-glucosidase, 50° C.)	Thermal stability: temperature up to which stable / 100% of activity retained [6]	pH optimum [7]	Temperature of highest activity [8]	Endoglucanase activity formed on pretreated Nutriose versus untreated Nutriose [9]
Ta XYN_30: xylanase of Thermoascus aurantiacus ALKO4242, gene Ta xyn10A, amino acid SEQ ID NO: 18	132 000 nkat/ml	4800 nkat/mg	ca. 6.8	4.5	75 °C	–	–	–	–	–	–
B1	–	–	> 5.85 and 4.55	–	–	6270 nkat/ml and 11500 nkat/ml	600 nkat/mg	up to 75 °C	4.5	75 °C	More than two-fold increase
